System: T47D cells
Assay: Mammosphere formation in T47D cells
Type: cell-based, human
Conditions: T47D cells, EGF 20 ng/ml, 14 days
Protocol: Primary Mammospheres: Adherent cells were washed with PBS and dissociated enzymatically in 0.25% trypsin-EDTA (Invitrogen Corporation, Carlsbad, Calif.). Cells were sieved through a 40-μm sieve (BD FALCON, BD Biosciences, Bedford, Mass.) and analyzed microscopically for single-cellularity. Single cells were plated in ultra-low attachment plates (Corning, Inc., Corning, N.Y.) and cultured in a humid incubator. Cells were grown in a serum-free mammary epithelial basal medium (MEBM; Lonza Group, Basel, Switzerland) containing 1% B27 Supplement (Invitrogen Corporation, Carlsbad, Calif.), 1% penicillin-streptomycin (Invitrogen Corporation, Carlsbad, Calif.), 5 μg/ml insulin (Invitrogen Corporation, Carlsbad, Calif.), 20 ng/ml EGF (Sigma-Aldrich, St. Louis, Mo.), 1 ng/ml hydrocortisone (Sigma-Aldrich, St. Louis, Mo.), and 100 μM β-mercaptoethanol. […] Mammosphere Forming Efficiency (MFE) % was calculated by the number of mammospheres per well/number of cells seeded per well.
Secondary Mammospheres: Primary mammospheres were collected by centrifugation (5 min, 1000 rpm), and dissociated enzymatically in 0.25% typsin-EDTA. Cells were sieved through a 40-μm tip strainer (Bel-Art SP Scienceware, South Wayne, N.J.) and analyzed microscopically for single-cellularity. […] Mammosphere Forming Efficiency (MFE) % was calculated by the number of mammospheres per well/number of cells seeded per well. […]

B1: EGF: growth factor in mammosphere culture media, 20 ng/ml (protein, UniProt P01133 23-1207, looked up)
Pro-epidermal growth factor: PQHWSCPEGTLAGNGNSTCVGPAPFLIFSHGNSIFRIDTEGTNYEQLVVDAGVSVIMDFHYNEKRIYWVDLERQLLQRVFLNGSRQERVCNIEKNVSGMAINWINEEVIWSNQQEGIITVTDMKGNNSHILLSALKYPANVAVDPVERFIFWSSEVAGSLYRADLDGVGVKALLETSEKITAVSLDVLDKRLFWIQYNREGSNSLICSCDYDGGSVHISKHPTQHNLFAMSLFGDRIFYSTWKMKTIWIANKHTGKDMVRINLHSSFVPLGELKVVHPLAQPKAEDDTWEPEQKLCKLRKGNCSSTVCGQDLQSHLCMCAEGYALSRDRKYCEDVNECAFWNHGCTLGCKNTPGSYYCTCPVGFVLLPDGKRCHQLVSCPRNVSECSHDCVLTSEGPLCFCPEGSVLERDGKTCSGCSSPDNGGCSQLCVPLSPVSWECDCFPGYDLQLDEKSCAASGPQPFLLFANSQDIRHMHFDGTDYGTLLSQQMGMVYALDHDPVENKIYFAHTALKWIERANMDGSQRERLIEEGVDVPEGLAVDWIGRRFYWTDRGKSLIGRSDLNGKRSKIITKENISQPRGIAVHPMAKRLFWTDTGINPRIESSSLQGLGRLVIASSDLIWPSGITIDFLTDKLYWCDAKQSVIEMANLDGSKRRRLTQNDVGHPFAVAVFEDYVWFSDWAMPSVMRVNKRTGKDRVRLQGSMLKPSSLVVVHPLAKPGADPCLYQNGGCEHICKKRLGTAWCSCREGFMKASDGKTCLALDGHQLLAGGEVDLKNQVTPLDILSKTRVSEDNITESQHMLVAEIMVSDQDDCAPVGCSMYARCISEGEDATCQCLKGFAGDGKLCSDIDECEMGVPVCPPASSKCINTEGGYVCRCSEGYQGDGIHCLDIDECQLGEHSCGENASCTNTEGGYTCMCAGRLSEPGLICPDSTPPPHLREDDHHYSVRNSDSECPLSHDGYCLHDGVCMYIEALDKYACNCVVGYIGERCQYRDLKWWELRHAGHGQQQKVIVVAVCVVVLVMLLLLSLWGAHYYRTQKLLSKNPKNPYEESSRDVRSRRPADTEDGMSSCPQPWFVVIKEHQDLKNGGQPVAGEDGQAADGSMQPTSWRQEPQLCGMGTEQGCWIPVSSDKGSCPQVMERSFHMPSYGTQTLEGGVEKPHSLLSANPLWQQRALDPPHQMELTQ
modifications: Pro-epidermal growth factor
notes: growth factor in mammosphere culture media, 20 ng/ml
- mammosphere formation on removal and add-back of EGF: clear requirement for growth factor signaling

— patent US10942183B2, “Methods of detecting progesterone receptor and of detecting an expression level” (REGENTS OF THE UNIVERSITY OF MINNESOTA, priority 2017, dated 2021)
